Test results published in patent US20240228595A1.

Molecular target: SARS-COV-2 RBD-his tag protein (Sino Biological) (SARS-CoV-2) (UniProt P0DTC2)
Experiment: ELISA, SARS-CoV-2-WA-1 RBD coated, antibody titrated

## S309 (Sotrovimab) (antibody)
  EC50: 2 ng/mL
